According to patent publication US20230250157A1 (published 2023):

Experiments:
Assay in all cases: ELISA
[1] = biological target: RsSTT200 RBD
[2] = biological target: BtKY72 RBD
[3] = biological target: SHC014 RBD
[4] = biological target: C028 RBD
[5] = biological target: RaTG13 RBD
[6] = biological target: Pang17 RBD
[7] = biological target: BM4831 RBD
[8] = biological target: Khosta2 RBD
[9] = biological target: RmYN02 RBD
[10] = biological target: Rs4081 RBD
[11] = biological target: Rf1 RBD
[12] = biological target: Yun11 RBD
[13] = biological target: LyRa3 RBD

Measured: EC50

B1: M8a-7 (antibody, V domains shown)
VH: QAYLQQSGAEMVRPGASVKMSCKASGYTFNNYNMHWVKQTPSQGLEWIGGFYPGNDDTAYSQKFKGKATLTVDKSSSTAFMHLSSLTSEDSAVYFCARSLGRYYAMDYWGQGTSVTVSS
VL: not shown
not listed: [13]
> 10 µg/mL: all other assays above

B2: M8a-28 (antibody, V domains shown)
VH: QVQLQQPGAELVKPGASVKMSCKASGYNFNHYWISWVKQRPGQGLEWIGDIYPLSHFTTYNEKFTNRATLTVDTSSTTAYMQLNSLTSDDSAVFYCARWDYFDSRTFDYWGQGTTLTVSS
VL: DILLTQFPAILSVSPGERVSFSCRASQTIGTNIHWYQQRINGSPRLLIKYASESISGIPSRFSGSGSGTDFSLSINNVESEDIADYYCQQINSWPLTFGAGTKLDLK
> 10 µg/mL: [6] | [7]

B3: M8a-15 (antibody, V domains shown)
VH: QVQLQQSGPELARPGASVKLSCRASGYTVTSFGLSWMKQRTGQGLEWIGEIYPTSKNTYYNDKFRTKATLTADKSSSTAYMELRSLTSEDSAVYFCVLYDYFDYWGQGTTLTVSS
VL: QIVLTQSPAIMSASPGEKVTISCSASSSVSYMYWYQQKTGSSPKPWIYRTSNLASGVPVRFSGSGSGTSYSLTISSMEAEDAATYYCQQYQSYPRTFGGGTKLEIK
not listed: [9] | [11] | [12]
> 10 µg/mL: all other assays above

B4: HSW-1 (antibody, V domains shown)
VH: QVQLQQPGAELVKPGTSMKLSCKASGYTFTSYWMHWVKQRPGQGLEWIGMIHPNSGSTKYNENFKSKATLTVDKSSSTAYMQFSSLTSEDSAVYYCVRSGSYYGTTYDYFDYWGQGTTLTVSS
VL: DIVLTQSPASLAVSLGQRATISCRASESVNIYGNSFMHWYQQKPGQPPKLLIFRASNLESGIPVRFSGSGSRTDFTLTINPVEADDVATYYCHQSNEDPFTFGSGTKLEIK
> 10 µg/mL: [7] | [8] | [12]

B5: M8a-3 (antibody, V domains shown)
VH: QVQLQQPGAELVLPGASVKLSCKASGYTFTNYWMHWVKQRPGHGLEWIGEIDPFDTYIKINQKFKGKSTLTVDTSSSTAYMQLSSLTSEDSAVYYCARPDSSGYPVYFDYWGQGTTLTVSS
VL: DIVMTQSHKFMSTSVGDRVSITCKASQDVGTYIAWYQQKPGQSPKLLIYWASTRHTGVPDRFTGSGSGTNYTLTISSVQAEDLALYHCQQHYSTPYTFGGGTKLEIK
> 10 µg/mL: [7] | [11]

B6: M8a-6 (antibody, V domains shown)
VH: QVQLQQPGTELVMPGASVKLSCKTSGYTFTHYWMHWVKQRPGEGLEWIGEIAPSDNYVKYNQKFKGKSTLSVDRSSSTAYMQLSSLTSEDSAVYFCARPDNSGYPVYFDYWGQGTSLTVSS
VL: DIVMTQSQKFMSTSLGDRVSISCKASQDVGTTVAWYQQKPGQSPKLLIYWASTRHTGVPDRFTGTGSGTDYTLTISSVAAEDLALYYCQQHYNTPYTFGGGTKLEIE
> 10 µg/mL: [2] | [13] | [7] | [8] | [10]

B7: M8a-30 (antibody, V domains shown)
VH: QVHLQQSGPELVKPGASVKISCKASGYGFSSSWMNWVKQRPGKGLEWIGRIYPGDGDTNYNDKFQGKATLTADRSSSTAYMHLTSLTSADSAVYFCARSLLYSFDYWGQGTTLTVSS
VL: DVVVTQTPLSLPVSFGDQVSISCRSSQSLAGSYGHTYLSWYLHKSGQSPQLLIYGISNRFSGVPDRFSGSGSGTDFTLKISTIKPEDLGMYYCLQGTHQPLTFGAGTKLELK
> 10 µg/mL: [1] | [4] | [5] | [7] | [8]

B8: M8a-25 (antibody, V domains shown)
VH: EVQLQQSVAELVRPGASVKLSCTASGFNIKNTYMHWVKQRPEQGLEWIGRIDPSIDHTRYAPKFQGKAVITAFTSSNTAYLQLSSLTSEDTAIYYCAREGGGNYPYYYAIDYWGQGTSVTVSS
VL: DIQMTQSSSSFSVSLGDRVTITCKASEDIYIRLAWYQQRPGNAPRLLISNAISLETGVPSRFSGSGFGKDHTLSITSLQTEDVATYYCQQYWSTPWTFGGGTKLEIK
not listed: [9] | [11]
> 10 µg/mL: all other assays above

B9: M8a-29 (antibody, V domains shown)
VH: EVQLQQSVAELVRPGASVKLSCTASGFNIKNTYMHWVKQRPEQGLEWIGRIDPSIDHTRYAPKFQGKAVITAFTSSNTAYLQLSSLTSEDTAIYYCAREGGGNYPYYYAIDYWGQGTSVTVSS
VL: DIVMTQAAFSNPVTLGTSASISCRSTKSLLHSNGITYLYWYLQKPGQSPQLLIYQMSNLASGVPDRFSSSGSGTDFTLRISRVEAEDVGVYYCAQNLELPYTFGGGTKLEIK
not listed: [10]
> 10 µg/mL: all other assays above

B10: M8a-11 (antibody, V domains shown)
VH: EVQLQQSGPELVKPGASVKIPCKASGYTFTDYNMDWVKQSHEKSLEWIGEIDPNNGDTIYNQKFKGKASLTVDKSSSTAYMELRSLTSEDTAVYYCAKRGYYGSSLWWYFDVWGTGTTVTVSS
VL: DIQMTQSSSSFSVSLGDRVTITCKASEDIYIRLAWYQQRPGNAPRLLISNAISLETGVPSRFSGSGSGKDYTLSITSLQTEDVATYYCQQYWSTPWTFGGGTKLEIK
not listed: [9] | [10] | [11] | [12]
> 10 µg/mL: all other assays above
